According to the supplement of paper PMC11246515:
± gives the standard deviation of the averaged measurements.

Assay: total protein half-life in vivo (active degradation + dilution); higher = more stable protein
[1] = E. coli NCM3722 delta-smpB, growth: N-lim chemostat, doubling time 6 h
[2] = wild type E. coli NCM3722, growth: C-lim chemostat, doubling time 3 h
[3] = wild type E. coli NCM3722, growth: C-lim chemostat, doubling time 6 h
[4] = wild type E. coli NCM3722, growth: C-lim chemostat, doubling time 12 h
[5] = wild type E. coli NCM3722, growth: P-lim chemostat, doubling time 6 h
[6] = wild type E. coli NCM3722, growth: P-lim chemostat, doubling time 12 h
[7] = E. coli NCM3722 delta-clpP, growth: N-lim chemostat, doubling time 6 h
[8] = wild type E. coli NCM3722, growth: N-lim chemostat, doubling time 6 h
[9] = E. coli NCM3722 delta-clpP delta-lon delta-hslV, growth: N-lim chemostat, doubling time 6 h
[10] = E. coli NCM3722 delta-hslV, growth: N-lim chemostat, doubling time 6 h
[11] = E. coli NCM3722 delta-lon, growth: N-lim chemostat, doubling time 6 h
[12] = wild type E. coli NCM3722, growth: N-lim chemostat, doubling time 12 h

Sequence: MSKSNPSEVKLAVPTSGGFSGLKSLNLQVFVMIAAIIAIMLFFTWTTDGAYLSARNVSNLLRQTAITGILAVGMVFVIISAEIDLSVGSMMGLLGGVAAICDVWLGWPLPLTIIVTLVLGLLLGAWNGWWVAYRKVPSFIVTLAGMLAFRGILIGITNGTTVSPTSAAMSQIGQSYLPASTGFIIGALGLMAFVGWQWRGRMRRQALGLQSPASTAVVGRQALTAIIVLGAIWLLNDYRGVPTPVLLLTLLLLGGMFMATRTAFGRRIYAIGGNLEAARLSGINVERTKLAVFAINGLMVAIAGLILSSRLGAGSPSAGNIAELDAIAACVIGGTSLAGGVGSVAGAVMGAFIMASLDNGMSMMDVPTFWQYIVKGAILLLAVWMDSATKRRS [P0AGI4]
- total protein half-life in vivo [1]: 4.37 ± 0.55 h
- total protein half-life in vivo [2]: 3.44 ± 0.11 h
- total protein half-life in vivo [3]: 5.06 ± 1.1 h
- total protein half-life in vivo [4]: 9.1 ± 0.54 h
- total protein half-life in vivo [5]: 4.71 ± 0.42 h
- total protein half-life in vivo [6]: 8.47 h

Sequence: MALLNIFDIAGSALTAQSQRLNVAASNLANADSVTGPDGQPYRAKQVVFQVNAAPGAATGGVKVADVIESQAPDKLVYEPGNPLADAKGYVKMPNVDVVGEMVNTMSASRSYQANVEVLNTVKSMMLKTLTLGQ [P0ABX2]
- total protein half-life in vivo [7]: > 8 h
- total protein half-life in vivo [1]: > 8 h
- total protein half-life in vivo [2]: 0.544 ± 0.33 h
- total protein half-life in vivo [3]: 0.417 h
- total protein half-life in vivo [4]: 1.79 ± 0.53 h
- total protein half-life in vivo [8]: 3.6 h

Sequence: MNVVILDTGCANLNSVKSAIARHGYEPKVSRDPDVVLLADKLFLPGVGTAQAAMDQVRERELFDLIKACTQPVLGICLGMQLLGRRSEESNGVDLLGIIDEDVPKMTDFGLPLPHMGWNRVYPQAGNRLFQGIEDGAYFYFVHSYAMPVNPWTIAQCNYGEPFTAAVQKDNFYGVQFHPERSGAAGAKLLKNFLEM
- total protein half-life in vivo [9]: 5.66 ± 1.5 h
- total protein half-life in vivo [7]: 4.08 ± 0.64 h
- total protein half-life in vivo [10]: 4.08 ± 0.044 h
- total protein half-life in vivo [11]: 4.11 ± 0.85 h
- total protein half-life in vivo [1]: 4.11 ± 0.27 h
- total protein half-life in vivo [2]: 3.16 ± 0.23 h
- total protein half-life in vivo [3]: 5.31 ± 0.46 h
- total protein half-life in vivo [4]: 10.5 ± 0.7 h
- total protein half-life in vivo [8]: 4.46 ± 0.29 h
- total protein half-life in vivo [12]: 7.8 ± 1.1 h
- total protein half-life in vivo [5]: 5.78 ± 0.17 h
- total protein half-life in vivo [6]: 11.3 ± 0.22 h

Sequence: MAIPAFGLGTFRLKDDVVISSVITALELGYRAIDTAQIYDNEAAVGQAIAESGVPRHELYITTKIWIENLSKDKLIPSLKESLQKLRTDYVDLTLIHWPSPNDEVSVEEFMQALLEAKKQGLTREIGISNFTIPLMEKAIAAVGAENIATNQIELSPYLQNRKVVAWAKQHGIHITSYMTLAYGKALKDEVIARIAAKHNATPAQVILAWAMGEGYSVIPSSTKRKNLESNLKAQNLQLDAEDKKAIAALDCNDRLVSPEGLAPEWD
- total protein half-life in vivo [9]: 4.33 ± 0.17 h
- total protein half-life in vivo [7]: 4.57 ± 0.071 h
- total protein half-life in vivo [10]: 4.59 ± 0.27 h
- total protein half-life in vivo [11]: 4.76 ± 0.34 h
- total protein half-life in vivo [1]: 4.78 ± 0.36 h
- total protein half-life in vivo [2]: 3.05 ± 0.099 h
- total protein half-life in vivo [3]: 5.39 ± 0.67 h
- total protein half-life in vivo [4]: 10.7 ± 6.2 h
- total protein half-life in vivo [8]: 4.615 ± 0.044 h
- total protein half-life in vivo [12]: 8.62 ± 3.3 h
- total protein half-life in vivo [5]: 5.21 ± 0.41 h
- total protein half-life in vivo [6]: 11.4 ± 0.5 h

Sequence: MEMYFKRMKDEWTGLVEQADPPIRAKAAEIAVAHAHYLSIEFYRIVRIDPHAEEFLSNEQVERQLKSAMERWIINVLSAQVDDVERLIQIQHTVAEVHARIGIPVEIVEMGFRVLKKILYPVIFSSDYSAAEKLQVYHFSINSIDIAMEVMTRAFTFSDSSASKEDENYRIFSLLENAEEEKERQIASILSWEIDIIYKILLDSDLGSSLPLSQADFGLWFNHKGRHYFSGIAEVGHISRLIQDFDGIFNQTMRNTRNLNNRSLRVKFLLQIRNTVSQIITLLRELFEEVSRHEVGMDVLTKLLNRRFLPTIFKREIAHANRTGTPLSVLIIDVDKFKEINDTWGHNTGDEILRKVSQAFYDNVRSSDYVFRYGGDEFIIVLTEASENETLRTAERIRSRVEKTKLKAANGEDIALSLSIGAAMFNGHPDYERLIQIADEALYIAKRRGRNRVELWKASL [P0AA89]
- total protein half-life in vivo [9]: 6.71 ± 1.4 h
- total protein half-life in vivo [7]: 3.48 ± 0.94 h
- total protein half-life in vivo [10]: 2.854 ± 0.0076 h
- total protein half-life in vivo [11]: 4.26 ± 0.88 h
- total protein half-life in vivo [1]: 2.81 ± 0.03 h
- total protein half-life in vivo [2]: 1.66 ± 0.26 h
- total protein half-life in vivo [3]: 3.16 ± 0.017 h
- total protein half-life in vivo [4]: 4.49 ± 0.37 h
- total protein half-life in vivo [8]: 3.21 ± 0.42 h
- total protein half-life in vivo [12]: 4.83 ± 0.27 h
- total protein half-life in vivo [5]: 1.49 ± 0.32 h
- total protein half-life in vivo [6]: 3.09 ± 0.069 h

Sequence: MRNFDLSPLMRQWIGFDKLANALQNAGESQSFPPYNIEKSDDNHYRITLALAGFRQEDLEIQLEGTRLSVKGTPEQPKEEKKWLHQGLMNQPFSLSFTLAENMEVSGATFVNGLLHIDLIRNEPEPIAAQRIAISERPALNS [P0C058]
- total protein half-life in vivo [9]: 6.3 ± 0.16 h
- total protein half-life in vivo [7]: 2.21 ± 0.097 h
- total protein half-life in vivo [1]: 1.42 h
- total protein half-life in vivo [2]: 1.03 h
- total protein half-life in vivo [4]: 1.59 h
- total protein half-life in vivo [8]: 4.47 h
- total protein half-life in vivo [12]: 3.19 h

Sequence: MQSVTPTSQYLKALNEGSHQPDDVQKEAVSRLEIIYQELINSTPPAPRTSGLMARVGKLWGKREDTKHTPVRGLYMWGGVGRGKTWLMDLFYQSLPGERKQRLHFHRFMLRVHEELTALQGQTDPLEIIADRFKAETDVLCFDEFFVSDITDAMLLGGLMKALFARGITLVATSNIPPDELYRNGLQRARFLPAIDAIKQHCDVMNVDAGVDYRLRTLTQAHLWLSPLHDETRAQMDKLWLALAGGKRENSPTLEINHRPLATMGVENQTLAVSFTTLCVDARSQHDYIALSRLFHTVMLFDVPVMTRLMESEARRFIALVDEFYERHVKLVVSAEVPLYEIYQGDRLKFEFQRCLSRLQEMQSEEYLKREHLAG
- total protein half-life in vivo [9]: 3.66 ± 0.54 h
- total protein half-life in vivo [7]: 2.97 ± 0.16 h
- total protein half-life in vivo [10]: 3.35 ± 0.15 h
- total protein half-life in vivo [11]: 2.58 h
- total protein half-life in vivo [1]: 3.103 ± 0.03 h
- total protein half-life in vivo [2]: 2.72 ± 0.05 h
- total protein half-life in vivo [3]: 5.71 ± 0.58 h
- total protein half-life in vivo [4]: 9.73 ± 1.3 h
- total protein half-life in vivo [8]: 3.4 ± 0.15 h
- total protein half-life in vivo [12]: 5.55 ± 0.15 h
- total protein half-life in vivo [5]: 5.25 ± 0.66 h
- total protein half-life in vivo [6]: 9.34 ± 1.1 h

Sequence: MNMLEKIQSQLEHLSKSERKVAEVILASPDNAIHSSIAAMALEANVSEPTVNRFCRSMDTRGFPDFKLHLAQSLANGTPYVNRNVNEDDSVESYTGKIFESAMATLDHVRHSLDKSAINRAVDLLTQAKKIAFFGLGSSAAVAHDAMNKFFRFNVPVVYSDDIVLQRMSCMNCSDGDVVVLISHTGRTKNLVELAQLARENDAMVIALTSAGTPLAREATLAITLDVPEDTDIYMPMVSRLAQLTVIDVLATGFTLRRGAKFRDNLKRVKEALKESRFDKQLLNLSDDR
- total protein half-life in vivo [9]: 6.3 ± 1.1 h
- total protein half-life in vivo [7]: 4.86 ± 0.47 h
- total protein half-life in vivo [10]: 3.12 ± 0.53 h
- total protein half-life in vivo [11]: 3.65 ± 0.91 h
- total protein half-life in vivo [1]: 3.23 ± 0.018 h
- total protein half-life in vivo [2]: 2.26 ± 0.21 h
- total protein half-life in vivo [3]: 4.52 ± 1.7 h
- total protein half-life in vivo [4]: 5.45 ± 0.083 h
- total protein half-life in vivo [8]: 3.77 ± 0.28 h
- total protein half-life in vivo [12]: 4.38 ± 0.15 h
- total protein half-life in vivo [5]: 2 ± 0.28 h
- total protein half-life in vivo [6]: 4.1 ± 1.5 h
